The series is described as follows: immunoblot of HEK293 lysate and culture medium. To be noted: glycan lost; control: wild-type FMOD.

B1: fibromodulin (FMOD): FMODΔGAG (protein)
parent chain: MQWTSLLLLAGLFSLSQAQYEDDPHWWFHYLRSQQSTYYDPYDPYPYETYEPYPYGVDEGPAYTYGSPSPPDPRDCPQECDCPPNFPTAMYCDNRNLKYLPFVPSRMKYVYFQNNQITSIQEGVFDNATGLLWIALHGNQITSDKVGRKVFSKLRHLERLYLDHNNLTRMPGPLPRSLRELHLDHNQISRVPNNALEGLENLTALYLQHNEIQEVGSSMRGLRSLILLDLSYNHLRKVPDGLPSALEQLYMEHNNVYTVPDSYFRGAPKLLYVRLSHNSLTNNGLASNTFNSSSLLELDLSYNQLQKIPPVNTNLENLYLQGNRINEFSISSFCTVVDVVNFSKLQVLRLDGNEIKRSAMPADAPLCLRLASLIEI
As for B1, the expression_or_secretion result is reported as “abolishes”.

Values taken from publication PMC6063439.
